Laboratory results: the supplement of paper PMC10567573
± gives the standard deviation.

Experiment: protein stability index of a GFP-peptide fusion (GPS, HEK-293T) (PSI 1-6); higher = more stable
[1] = treatment: DMSO, c terminus: a fixed tail appended
[2] = treatment: MLN4924 1 uM, 8 h, c terminus: a fixed tail appended
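Note: 24-mer peptide tiles fused after GFP, lentivirally expressed, FACS-sorted into six equal bins by GFP/DsRed ratio, decoded by Illumina sequencing, PSI is the read-weighted mean bin number.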

Row | Sequence | protein stability index [1] | protein stability index [2] | protein stability index (treatment: DMSO, c terminus: native) | protein stability index (treatment: MLN4924 1 uM, 8 h, c terminus: native)
1 | GNTAVSVLMLLVALLFTGIAVLGI [SCAMP3] | 1.99 ± 0.37 | 1.96 ± 0.34 | – | –
2 | FTVGSVLGQILVSVAGWSLFSLNV [SLC19A2] | 3.28 ± 0.33 | 3.1 ± 0.63 | – | –
3 | RSANGFPYREDEEGAFGEHGSQGT [MAP2] | 5.38 ± 0.25 | 5.41 ± 0.2 | – | –
4 | RLFQQSCPTGLVFSNSCKCCTWN [CHIT1] | – | – | 2.37 ± 0.44 | 2.37 ± 0.28
5 | GAPLIRVHSSPVSSPSVSGPRRLV [SPACA3] | 3.24 ± 0.31 | 3.6 ± 0.19 | – | –
6 | YQHLEEDMKSLKQVLEMKNQQIHE [MTUS2] | 4.07 ± 0.11 | 4.27 ± 0.36 | – | –
7 | RAKGLLGTTVTFDDLMGILCKSVL [FEM1C] | 2.76 ± 0.63 | 2.54 ± 0.22 | – | –
8 | TLRDHFKGISSHSRSSLMPLRNDV [SLC2A12] | 2.96 ± 0.15 | 3.03 ± 0.37 | – | –
9 | ADDHRYKFADNKWSVTGKAEPAMP [TBX5] | 4.04 ± 0.17 | 4.2 ± 0.15 | – | –
10 | ELSEKNFQLNQDKMNFSTLRNIQG [POMP] | 2.69 ± 0.59 | 3.27 ± 0.44 | – | –
11 | IDDLEDDPVVNGERSGCALTDAVA [TCF25] | 5.3 ± 0.19 | 5.37 ± 0.11 | – | –
12 | RAINLLFDIARIERCNQLLRALKL [ZER1] | 1.82 ± 0.16 | 2.08 ± 0.32 | – | –
13 | LEDLERELDEPQHEMVAHRHRQEV [ZSCAN9] | 5.56 ± 0.12 | 5.47 ± 0.072 | – | –
14 | LKTFVKQTDHIKGIRQITSDDFCT [GFOD1] | 3.29 ± 0.4 | 3.26 ± 0.23 | – | –
15 | TDLEMQIESLNEELAYMKKNHEEE [KRT13] | 5.4 ± 0.16 | 5.433 ± 0.051 | – | –
16 | NFVRERTLDKRWRVRKEAMMGLAQ [PDS5B] | 2.8 ± 0.24 | 2.83 ± 0.39 | – | –
17 | MDDDFGVVKEEISDDNAKLPCFNG [DVL3] | 5.18 ± 0.19 | 5.21 ± 0.15 | – | –
18 | MMRGLSYSLTTSSTHKSSLCKVEI [RAB40A] | 2.31 ± 0.59 | 2.28 ± 0.46 | – | –
19 | LGEDNQPETQLFWDKEPWFWHDTL [TLE6] | 3.37 ± 0.35 | 3.32 ± 0.27 | – | –
20 | NGFTPLHFAAASTHGALCLELLVN [ANKRD44] | 3.06 ± 0.71 | 2.95 ± 0.9 | – | –
21 | TISFGSVSPGGVKLEISTKEVPVV [EPB41L3] | 2.9 ± 0.21 | 3.31 ± 0.18 | – | –
22 | LRVMTTNIRSARGNNPNGREAKMI [ELOA2] | 3.25 ± 0.18 | 3.49 ± 0.26 | – | –
23 | NMSREPFSTRALVLSILHATLPGI [SOAT2] | 3.18 ± 0.55 | 2.93 ± 0.62 | – | –

Row | Sequence | protein stability index [1] | protein stability index [2] | protein stability index (treatment: DMSO, c terminus: native) | protein stability index (treatment: MLN4924 1 uM, 8 h, c terminus: native)
24 | DKVLRFAQQIRLHHFNSSHLEIDD [MYORG] | 2.93 ± 0.17 | 2.95 ± 0.23 | – | –
25 | SPNYPSKYPPDRECIYIIEAAPRQ [NETO1] | 2.58 ± 0.11 | 2.77 ± 0.31 | – | –
26 | ARDCFATGRHYWEVDVQEAGAGWW [TRIM14] | 2.42 ± 0.22 | 2.41 ± 0.3 | – | –
27 | SSPNLQVSSDGTLKYMEVTLRPTD [PCDHGC5] | 3.84 ± 0.092 | 4.12 ± 0.33 | – | –
28 | VAQRSGCEERWLVIDRKVYNISEF [FADS1] | 2.11 ± 0.084 | 2.12 ± 0.32 | – | –
29 | MGQWQLEVGDPAPLGAGNLGPELI [DPCD] | 3.42 ± 0.23 | 3.48 ± 0.2 | – | –
30 | QRISCFQSTVKCLTVLQRLDVWLS [WDR41] | 2.45 ± 0.35 | 2.41 ± 0.44 | – | –
31 | FDVKNDRYIVNGSHEANKLQDMLD [EIF5] | 3.97 ± 0.11 | 3.81 ± 0.25 | – | –
32 | LQEPGEPQGPPASPSCPEEALAAT [PXN] | 5.44 ± 0.22 | 5.278 ± 0.023 | – | –
33 | TKGVREVERALQLPREPGDSAQFT [FEM1A] | 4.72 ± 0.23 | 4.76 ± 0.29 | – | –
34 | CFSTGLSRRVLLTNVVTGHRQSFG [DCAF4] | 2.1 ± 0.18 | 2.38 ± 0.21 | – | –
35 | QETLTNISAVNYDFDEEYFSNTSE [DAPK3] | 5.41 ± 0.26 | 5.41 ± 0.21 | – | –
36 | MNPYNAVLTKKFQVTMRGLLSCLS [FBXO39] | 2.7 ± 0.75 | 2.72 ± 0.23 | – | –
37 | VSCPEGRADCASESACSSDSLDEA [PWWP2B] | 5.4 ± 0.38 | 5.41 ± 0.42 | – | –
38 | QHEEICLGLFTLILTEPAQAQKCY [INTS3] | 2.24 ± 0.46 | 2.32 ± 0.41 | – | –
39 | KRNKRNPIFQDSQDTEVFSWSDNE [FAM104B] | 4.46 ± 0.21 | 4.58 ± 0.22 | – | –
40 | DVRLDREHRVAGIFPRLSFKDKST [CLPTM1] | 3.79 ± 0.063 | 4 ± 0.089 | – | –
41 | AVIRWMHSFNFVLSANLHGGAVVA [CPN1] | 2.95 ± 0.71 | 2.88 ± 0.19 | – | –
42 | AQLYTLWVTFQVLLYTSLPDFCHK [DHCR7] | 2.88 ± 0.13 | 3.13 ± 0.18 | – | –
43 | ESKDQGKTLALARTMDIPRSVQNF [ALDH8A1] | 4.01 ± 0.15 | 4.18 ± 0.23 | – | –
44 | SILRAPAYPLELQGQPDPAPRPGP [MOSPD3] | 4.53 ± 0.28 | 4.39 ± 0.43 | – | –
45 | GLEGLEDAPPVELQLLHECSPSQM [FANCE] | 4.77 ± 0.19 | 4.66 ± 0.12 | – | –
46 | KFTNKEWETIRSFKDEWTQLDMFY [AASDHPPT] | 2 ± 0.36 | 2.22 ± 0.23 | – | –

Row | Sequence | protein stability index [1] | protein stability index [2] | protein stability index (treatment: DMSO, c terminus: native) | protein stability index (treatment: MLN4924 1 uM, 8 h, c terminus: native)
47 | QDLLKERQKDLKFLSEEEYWKLQI [CCNC] | 3.45 ± 0.13 | 3.67 ± 0.15 | – | –
48 | GNKQWWFGGGCDLTPTYLNQEDAI [CPOX] | 3.12 ± 0.19 | 3.33 ± 0.23 | – | –
49 | PDFPSINMDPAGLDDEDDTSIGMP [RETREG3] | 5.49 ± 0.18 | 5.53 ± 0.11 | – | –
50 | EPELQVGIDIMKTSFPGRGSIPEF [AASDHPPT] | 3.67 ± 0.22 | 3.61 ± 0.29 | – | –
51 | ASRTWCFYNTEDIKDWEDRFYLLL [PTGFR] | 2.15 ± 0.6 | 2.46 ± 0.38 | – | –
52 | QVERMREVNSRCYQPEPFACGIEH [FBXO34] | 2.53 ± 0.3 | 2.43 ± 0.34 | – | –
53 | EAGAPGEEDIQGPTKADTEKWAEG [CHGB] | 5.64 ± 0.29 | 5.59 ± 0.32 | – | –
54 | PVSLSASQSWHTESLPVSLGPESW [BCL2L13] | 3.37 ± 0.26 | 3.21 ± 0.11 | – | –
55 | NFKAHVSPHEMLQAVVLCSKKTFQ [USP39] | 2.25 ± 0.25 | 2.26 ± 0.3 | – | –
56 | SDINSIRRILDELTLCKSDLESQV [KRT34] | 3.34 ± 0.2 | 3.1 ± 0.37 | – | –
57 | HHVADAYTSSQKVSPIQIDGAGRT [TOR1AIP2] | 3.53 ± 0.21 | 3.74 ± 0.46 | – | –
58 | NLQSLINNEIPDCYTFSVLITFDN [MCOLN1] | 2.93 ± 0.22 | 3.23 ± 0.74 | – | –
59 | LGGVKKSATLRSFEGLMGTIKSKV [TPD52L3] | 2.64 ± 0.3 | 2.54 ± 0.26 | – | –
60 | GPCEGPSKEDKDLDSSEGSSQEDE [SPANXN3] | 5.68 ± 0.14 | 5.68 ± 0.14 | – | –
61 | MELSWGQSPGQPVQGGSEAWGPGT [TEX19] | 3.86 ± 0.53 | 4.06 ± 0.36 | – | –
62 | LKHQTVYRLLKCAPRGKNGFTPLH [FEM1A] | 2.71 ± 0.69 | 2.39 ± 0.57 | – | –
63 | SCGGDGGIVVWNMDVERQETPEWL [WDFY2] | 3.82 ± 0.34 | 3.79 ± 0.18 | – | –
64 | PSETGNTFVSGGCDKKAMVWDMRS [GNB5] | 3.93 ± 0.16 | 3.75 ± 0.26 | – | –
65 | DETIGFEDILNDPSQSEVMGEPHL [POMP] | 5.5 ± 0.15 | 5.46 ± 0.086 | – | –
66 | PGEQGGGKLVLSSLPKRLCLVCGD [ESRRA] | 2.79 ± 0.19 | 3.25 ± 0.29 | – | –
67 | MSGQTLTDRIAAAQYSVTGSAVAR [SNAP91] | 4 ± 0.19 | 3.98 ± 0.2 | – | –
68 | AGGGSQENLDNDTETDSLVSAQRE [DVL3] | 5.32 ± 0.21 | 5.65 ± 0.36 | – | –
69 | DESQISAEEAEDHGRIPDPDDFVP [FAM189A2] | 5.6 ± 0.2 | 5.61 ± 0.15 | – | –

Row | Sequence | protein stability index [1] | protein stability index [2] | protein stability index (treatment: DMSO, c terminus: native) | protein stability index (treatment: MLN4924 1 uM, 8 h, c terminus: native)
70 | NSPGAYRSHPDNAIPIKSWFSDPS [CTDNEP1] | 3.37 ± 0.23 | 3.4 ± 0.12 | – | –
71 | WVYKNKLIFFGGYGYLPEDKVLGT [KLHDC2] | 2.55 ± 1.1 | 2.88 ± 1.4 | – | –
72 | EEEMRSHYVAQTGILWLLMNNCFL [GAGE1] | 3.15 ± 0.36 | 3.2 ± 0.35 | – | –
73 | QDHFHVFVGDLSPEITTEDIKAAF [TIA1] | 2.73 ± 0.54 | 3 ± 0.33 | – | –
74 | AELLKANEIIKKLQGDLKTLMGKL [SASS6] | 2.36 ± 0.59 | 3.44 ± 0.66 | – | –
75 | RERKKNWGGQEDREPAGRWKEGRP [PBXIP1] | 4.49 ± 0.24 | 4.73 ± 0.13 | – | –
76 | IYQQLSRYRGLGLLASVPSNPNGN [CRY1] | 2.4 ± 0.28 | 2.74 ± 0.29 | – | –
77 | EPREFSSRNFGVRNQGNFSVVGTV [ZC2HC1C] | 3.06 ± 0.31 | 3.01 ± 0.24 | – | –
78 | TYSLPPFLKAVLRQERVSLYPFQI [CDS1] | 2.19 ± 0.8 | 2.12 ± 0.32 | – | –
79 | FTTFRGTELSFLVTTHQPTNLVLP [EDNRA] | 2.84 ± 0.74 | 2.29 ± 0.37 | – | –
80 | LALGRERLGEIHTLPLPASLKAYL [SPSB1] | 2.24 ± 0.38 | 2.15 ± 0.19 | – | –
81 | PHSAKTEEHTTILRPSYTGLSSSS [CDC14A] | 4.4 ± 0.33 | 4.58 ± 0.2 | – | –
82 | FGRKDHLTRHTKKTHSQELMKESL [PLAGL1] | 3.53 ± 0.2 | 3.77 ± 0.26 | – | –
83 | EGQARCLAHLGRHMEALEIAANLE [C8orf76] | 3.6 ± 0.42 | 3.74 ± 0.39 | – | –
84 | IVSHFQKLFDVPSLNGVYPRMNEV [CEP70] | 2.46 ± 0.82 | 2.56 ± 0.53 | – | –
85 | FEEVLSSTAHASAQSLAGGSRRTK [TPD52L1] | 5.16 ± 0.16 | 5.11 ± 0.24 | – | –
86 | RKLRKTVNGDGSRENGNNSSDKVR [PHTF1] | 4.96 ± 0.088 | 4.99 ± 0.18 | – | –
87 | LEKCKTLVSQSNDLSSLRAKYPHD [SPACA9] | 4.29 ± 0.16 | 4.4 ± 0.19 | – | –
88 | EDGFGEHPFYHCLVAEVPKEHWTP [SAT1] | 3.05 ± 0.22 | 3.12 ± 0.27 | – | –
89 | GLVYRIHSVLQGFIPLFQKFRLTG [TMEM40] | 3.03 ± 0.56 | 2.73 ± 0.37 | – | –
